The results in this text go back to publication PMC2577008, “The Transcriptional Repressor Protein NsrR Senses Nitric Oxide Directly via a [2Fe-2S] Cluster” (PLoS ONE, 2008).

In series [1] the target is T1, [2Fe-2S] NsrR (holo) (Streptomyces coelicolor, UniProt Q9L132 1-148).
T1 sequence: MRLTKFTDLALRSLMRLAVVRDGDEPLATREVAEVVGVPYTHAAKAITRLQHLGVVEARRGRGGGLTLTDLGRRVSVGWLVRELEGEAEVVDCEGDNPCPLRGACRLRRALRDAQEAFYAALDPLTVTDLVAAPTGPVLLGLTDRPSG
Put plainly: analytical ultracentrifugation (sedimentation equilibrium); [2Fe-2S] cluster; 2 uM DNA, 10 uM NsrR; mass 45.0 kDa with NsrR; EMSA: 10 mM Tris-HCl pH 7.5, 60 mM KCl, on ice 2 min, ~20 ng probe, NsrR diluted to 500 nM in 50 mM Tris pH 7.0 (legend: 50 mM Tris pH 7.0, 100 mM NaCl); AUC: 5. Conditions: protein: recombinant; tags: none stated (pET21a; reverse primer includes the stop codon); chain copies: 2; blunt. In general terms: Mobility shift assays separate free from complexed probe on a gel.

Series [2] deals with T1, [2Fe-2S] NsrR (holo). Briefly: analytical ultracentrifugation (sedimentation equilibrium); [2Fe-2S] cluster; 2 uM DNA, 10 uM NsrR; EMSA: 10 mM Tris-HCl pH 7.5, 60 mM KCl, on ice 2 min, ~20 ng probe, NsrR diluted to 500 nM in 50 mM Tris pH 7.0 (legend: 50 mM Tris pH 7.0, 100 mM NaCl); AUC: 5. To be noted: protein: recombinant; tags: none stated (pET21a; reverse primer includes the stop codon); chain copies: 2; blunt.

Series [3] has as its target T1, [2Fe-2S] NsrR (holo). Put plainly: analytical ultracentrifugation (sedimentation equilibrium); [2Fe-2S] cluster; 2 uM DNA, 10 uM NsrR; mass 17.4 to 47.3 kDa, homodimer; EMSA: 10 mM Tris-HCl pH 7.5, 60 mM KCl, on ice 2 min, ~20 ng probe, NsrR diluted to 500 nM in 50 mM Tris pH 7.0 (legend: 50 mM Tris pH 7.0, 100 mM NaCl); AUC: 5. Conditions: protein: recombinant; tags: none stated (pET21a; reverse primer includes the stop codon); chain copies: 2; blunt.

Series [4] concerns the molecule itself. Briefly: AUC; sedimentation equilibrium at 16,000, 18,000 and 20,000 rpm, absorbance at 260 nm; 10 uM monomeric NsrR with 2 uM 30 bp double-stranded oligonucleotide (hmpA2 or hmpA1 binding site); 50 mM Tris pH 8.0 (legend: pH 7.0), 100 mM NaCl, 1 mM dithiothreitol; one-component fit; the mass of the DNA-protein complex is measured.

Broadly, the stoichiometry N is the number of molecules, sites or subunits per partner or assembly.

B1: hmpA1 30 bp oligonucleotide (dsDNA)
DNA 1: CTAAAACACGAATATCATCTACCAATTAAG
DNA 2: CTTAATTGGTAGATGATATTCGTGTTTTAG
B1: in series [1], the binding result is “binds”.

B2: Control oligonucleotide (nsrR coding sequence) (dsDNA)
DNA 1: CCGCCTGCAGGCCCTGGGTGTG
DNA 2: CACACCCAGGGCCTGCAGGCGG
In the case of B2, the binding result in series [2] is “no binding”.

B3: hmpA2 30 bp oligonucleotide (dsDNA)
DNA 1: GGAAAACAAGCATCTGAGATCCCAGTTCGG
DNA 2: CCGAACTGGGATCTCAGATGCTTGTTTTCC
B3: in series [3], the binding result is “binds”.

B4: NsrR from Streptomyces coelicolor ([2Fe-2S] NsrR) (natural protein, UniProt Q9L132 1-148, looked up)
chain: T1 sequence
notes: NsrR (SCO7427), Rrf2 family transcriptional repressor of Streptomyces coelicolor; nsrR gene amplified from genomic DNA with primers from the start codon (CATATG...) to the stop codon (TCA... on the reverse primer); calculated monomer mass 15.9 kDa; Carries a [2Fe-2S] cluster as purified (on average 28% cluster incorporation); also called SCO7427; holo [2Fe-2S]; NsrR
Take B4: in series [4], the “stoichiometry N” value came to 2.
